According to patent US20240270846A1 (published 2024):
Numbering of substitutions follows the chain as printed. In names and notes the source's numbering stands.

B1: CE115HA000 D73T one-arm antibody (antibody, human IgG1, kappa, L234A L235A, N297A, name in Kabat numbering)
heavy: QVQLVESGGGVVQPGRSLRLSCAASGFTFSNAWMHWVRQAPGKGLEWVAQIKAKSNNYATYYAESVKGRFTISRDTSKNSLYLQMNSLKTEDTAVYYCRYVHYGAYYGVDAWGQGTTVTVSSASTKGPSVFPLAPSSKSTSGGTAALGCLVKDYFPEPVTVSWNSGALTSGVHTFPAVLQSSGLYSLSSVVTVPSSSLGTQTYICNVNHKPSNTKVDKKVEPKSCDKTHTCPPCPAPEAAGGPSVFLFPPKPKDTLMISRTPEVTCVVVDVSHEDPEVKFNWYVDGVEVHNAKTKPREEQYASTYRVVSVLTVLHQDWLNGKEYKCKVSNKALPAPIEKTISKAKGQPREPQVYTLPPSRCELTKNQVSLSCAVKGFYPSDIAVEWESNGQPENNYKTTPPVLDSDGSFFLVSKLTVDKSRWQQGNVFSCSVMHEALHNHYTQKSLSLSPDYKDDDDK
chain: EPKSSDKTHTCPPCPAPELLGGPSVFLFPPKPKDTLMISRTPEVTCVVVDVSHEDPEVKFNWYVDGVEVHNAKTKPREEQYNSTYRVVSVLTVLHQDWLNGKEYKCKVSNKALPAPIEKTISKAKGQPREPQVCTLPPSRDELTKNQVSLWCLVKGFYPSDIAVEWESNGQPENNYKTTPPVLDSDGSFFLYSKLTVDKSRWQQGNVFSCSVMHEALHNRYTQKSLSLSP
light: DIVMTQSPLSLPVTPGEPASISCRSSQSLVHSNRNTYLHWYQQKPGQAPRLLIYKVSNRFSGVPDRFSGSGSGTDFTLKISRVEAEDVGVYYCGQGTQVPYTFGQGTKLEIKRTVAAPSVFIFPPSDEQLKSGTASVVCLLNNFYPREAKVQWKVDNALQSGNSQESVTEQDSKDSTYSLSSTLTLSKADYEKHKVYACEVTHQGLSSPVTKSFNRGEC
notes: one-arm antibody
B2: CE115HA000 G100bE one-arm antibody (antibody, human IgG1, kappa, L234A L235A, N297A, name in Kabat numbering)
heavy: B1 heavy with T76D, G108E
chain: B1 chain
light: B1 light
notes: one-arm antibody
B3: CE115HA000 G100bD one-arm antibody (antibody, human IgG1, kappa, L234A L235A, N297A, name in Kabat numbering)
heavy: B1 heavy with T76D, G108D
chain: B1 chain
light: B1 light
notes: one-arm antibody
B4: CE115HA000 G98T one-arm antibody (antibody, human IgG1, kappa, L234A L235A, N297A, name in Kabat numbering)
heavy: B1 heavy with T76D, G104T
chain: B1 chain
light: B1 light
notes: one-arm antibody
B5: CE115HA000 G98A one-arm antibody (antibody, human IgG1, kappa, L234A L235A, N297A, name in Kabat numbering)
heavy: B1 heavy with T76D, G104A
chain: B1 chain
light: B1 light
notes: one-arm antibody
B6: CE115HA000 G98H one-arm antibody (antibody, human IgG1, kappa, L234A L235A, N297A, name in Kabat numbering)
heavy: B1 heavy with T76D, G104H
chain: B1 chain
light: B1 light
notes: one-arm antibody
B7: CE115HA000 G98R one-arm antibody (antibody, human IgG1, kappa, L234A L235A, N297A, name in Kabat numbering)
heavy: B1 heavy with T76D, G104R
chain: B1 chain
light: B1 light
notes: one-arm antibody
B8: CE115HA000 G98Q one-arm antibody (antibody, human IgG1, kappa, L234A L235A, N297A, name in Kabat numbering)
heavy: B1 heavy with T76D, G104Q
chain: B1 chain
light: B1 light
notes: one-arm antibody
B9: CE115HA000 G98S one-arm antibody (antibody, human IgG1, kappa, L234A L235A, N297A, name in Kabat numbering)
heavy: B1 heavy with T76D, G104S
chain: B1 chain
light: B1 light
notes: one-arm antibody
B10: CE115HA000 D101P one-arm antibody (antibody, human IgG1, kappa, L234A L235A, N297A, name in Kabat numbering)
heavy: B1 heavy with T76D, D110P
chain: B1 chain
light: B1 light
notes: one-arm antibody
B11: CE115HA000 G98Y one-arm antibody (antibody, human IgG1, kappa, L234A L235A, N297A, name in Kabat numbering)
heavy: B1 heavy with T76D, G104Y
chain: B1 chain
light: B1 light
notes: one-arm antibody
B12: CE115HA000 G98K one-arm antibody (antibody, human IgG1, kappa, L234A L235A, N297A, name in Kabat numbering)
heavy: B1 heavy with T76D, G104K
chain: B1 chain
light: B1 light
notes: one-arm antibody
B13: CE115HA000 D101I one-arm antibody (antibody, human IgG1, kappa, L234A L235A, N297A, name in Kabat numbering)
heavy: B1 heavy with T76D, D110I
chain: B1 chain
light: B1 light
notes: one-arm antibody
B14: CE115HA000 D101S one-arm antibody (antibody, human IgG1, kappa, L234A L235A, N297A, name in Kabat numbering)
heavy: B1 heavy with T76D, D110S
chain: B1 chain
light: B1 light
notes: one-arm antibody
B15: CE115HA000 D101L one-arm antibody (antibody, human IgG1, kappa, L234A L235A, N297A, name in Kabat numbering)
heavy: B1 heavy with T76D, D110L
chain: B1 chain
light: B1 light
notes: one-arm antibody
B16: CE115HA000 D101V one-arm antibody (antibody, human IgG1, kappa, L234A L235A, N297A, name in Kabat numbering)
heavy: B1 heavy with T76D, D110V
chain: B1 chain
light: B1 light
notes: one-arm antibody
B17: CE115HA000 D101F one-arm antibody (antibody, human IgG1, kappa, L234A L235A, N297A, name in Kabat numbering)
heavy: B1 heavy with T76D, D110F
chain: B1 chain
light: B1 light
notes: one-arm antibody
B18: CE115HA000 G65D one-arm antibody (antibody, human IgG1, kappa, L234A L235A, N297A, name in Kabat numbering)
heavy: B1 heavy with G68D, T76D
chain: B1 chain
light: B1 light
notes: one-arm antibody
B19: CE115HA000 G65E one-arm antibody (antibody, human IgG1, kappa, L234A L235A, N297A, name in Kabat numbering)
heavy: B1 heavy with G68E, T76D
chain: B1 chain
light: B1 light
notes: one-arm antibody
B20: CE115HA000 D101R one-arm antibody (antibody, human IgG1, kappa, L234A L235A, N297A, name in Kabat numbering)
heavy: B1 heavy with T76D, D110R
chain: B1 chain
light: B1 light
notes: one-arm antibody
B21: CE115HA000 D101M one-arm antibody (antibody, human IgG1, kappa, L234A L235A, N297A, name in Kabat numbering)
heavy: B1 heavy with T76D, D110M
chain: B1 chain
light: B1 light
notes: one-arm antibody
B22: CE115HA000 D101G one-arm antibody (antibody, human IgG1, kappa, L234A L235A, N297A, name in Kabat numbering)
heavy: B1 heavy with T76D, D110G
chain: B1 chain
light: B1 light
notes: one-arm antibody
B23: CE115HA000 D101N one-arm antibody (antibody, human IgG1, kappa, L234A L235A, N297A, name in Kabat numbering)
heavy: B1 heavy with T76D, D110N
chain: B1 chain
light: B1 light
notes: one-arm antibody
B24: CE115HA000 D101Y one-arm antibody (antibody, human IgG1, kappa, L234A L235A, N297A, name in Kabat numbering)
heavy: B1 heavy with T76D, D110Y
chain: B1 chain
light: B1 light
notes: one-arm antibody
B25: CE115HA000 G98D one-arm antibody (antibody, human IgG1, kappa, L234A L235A, N297A, name in Kabat numbering)
heavy: B1 heavy with T76D, G104D
chain: B1 chain
light: B1 light
notes: one-arm antibody
B26: CE115HA000 D101T one-arm antibody (antibody, human IgG1, kappa, L234A L235A, N297A, name in Kabat numbering)
heavy: B1 heavy with T76D, D110T
chain: B1 chain
light: B1 light
notes: one-arm antibody
B27: CE115HA000 D101H one-arm antibody (antibody, human IgG1, kappa, L234A L235A, N297A, name in Kabat numbering)
heavy: B1 heavy with T76D, D110H
chain: B1 chain
light: B1 light
notes: one-arm antibody
B28: CE115HA000 G98P one-arm antibody (antibody, human IgG1, kappa, L234A L235A, N297A, name in Kabat numbering)
heavy: B1 heavy with T76D, G104P
chain: B1 chain
light: B1 light
notes: one-arm antibody
B29: CE115HA000 G100bF one-arm antibody (antibody, human IgG1, kappa, L234A L235A, N297A, name in Kabat numbering)
heavy: B1 heavy with T76D, G108F
chain: B1 chain
light: B1 light
notes: one-arm antibody
B30: CE115HA000 D101K one-arm antibody (antibody, human IgG1, kappa, L234A L235A, N297A, name in Kabat numbering)
heavy: B1 heavy with T76D, D110K
chain: B1 chain
light: B1 light
notes: one-arm antibody
B31: CE115HA000 D101Q one-arm antibody (antibody, human IgG1, kappa, L234A L235A, N297A, name in Kabat numbering)
heavy: B1 heavy with T76D, D110Q
chain: B1 chain
light: B1 light
notes: one-arm antibody
B32: CE115HA000 G100bL one-arm antibody (antibody, human IgG1, kappa, L234A L235A, N297A, name in Kabat numbering)
heavy: B1 heavy with T76D, G108L
chain: B1 chain
light: B1 light
notes: one-arm antibody

target: T1, CD3 epsilon homodimer protein (UniProt P07766 23-126); experiment: SPR (Biacore T200), CD3 epsilon homodimer on CM4 chip, one-arm antibody as analyte; ratio to unaltered CE115HA000;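 note: surface plasmon resonance run at 25 °C with HBS-EP+ as running buffer, CD3 epsilon homodimer attached by amine coupling, antibody passed over as analyte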
T1 construct: Construct of the homodimer protein is not described; also called CD3 (CD3 epsilon)
T1 sequence (P07766 23-126): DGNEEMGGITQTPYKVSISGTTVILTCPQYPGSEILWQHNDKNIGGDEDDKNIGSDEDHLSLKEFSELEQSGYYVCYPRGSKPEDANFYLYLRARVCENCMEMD

| KD ratio (KD value of CE115HA000/KD value of the altered form) | Binder |
| --- | --- |
| 0.78 | B1 |
| 7.29 | B2 |
| 6.25 | B3 |
| 0.93 | B4 |
| 0.98 | B5 |
| 1.14 | B6 |
| 4.69 | B7 |
| 1.04 | B8 |
| 0.98 | B9 |
| 43.4 | B10 |
| 2.75 | B11 |
| 4.85 | B12 |
| 1.73 | B13 |
| 0.91 | B14 |
| 0.71 | B15 |
| 1.18 | B16 |

| KD ratio (KD value of CE115HA000/KD value of the altered form) | Binder |
| --- | --- |
| 0.73 | B17 |
| 0.61 | B18 |
| 0.61 | B19 |
| 5.66 | B20 |
| 1.94 | B21 |
| 3.16 | B22 |
| 2.28 | B23 |
| 0.97 | B24 |
| 2.36 | B25 |
| 0.62 | B26 |
| 0.91 | B27 |
| 0.88 | B28 |
| 4.37 | B29 |
| 4.37 | B30 |
| 3.55 | B31 |
| 5.84 | B32 |
